Measurements from patent US5763209.

Key:
Experiment in all cases: cell_activity
[1] = test system: GAL4(1-147)-Egr-1(240-330) (Saccharomyces cerevisiae / Mus musculus); conditions: GAL4-site-dependent
[2] = test system: GAL4(1-147)-Egr-1(281-314) (Saccharomyces cerevisiae / Mus musculus); conditions: 1 µg effector plasmid
[3] = test system: GAL4(1-147)-Egr-1(3-281) (Saccharomyces cerevisiae / Mus musculus); conditions: GAL4-site-dependent activation; text says amino acids 1-281
[4] = test system: GAL4(1-147)-Egr-1(420-533) (Saccharomyces cerevisiae / Mus musculus); conditions: GAL4-site-dependent activation

GAL4 5 tkCAT reporter plasmid was tested, and the activity (fold repression) [1] was 10 and the activity (fold repression) [2] was greater than 5.
With “GAL4 reporter, five GAL4 sites with E1b minimal promoter” the activity [3] was 100 fold and the activity [4] was 5 fold.
